Experimental data from patent publication US20220184184A1, “GLUCOSE SENSITIVE INSULIN DERIVATIVES” (Novo Nordisk A/S, priority 2019, published 2022).

Key:
[1] = Alizarin red (ARS) colorimetric displacement assay, binding of boron compounds to glucose; conditions: statement in words
Method: The alizarin-red binding assay is a colorimetric assay used to determine the inhibition affinity of boronate/boroxole compounds to glucose. The assay is based on a colour shift of alizarin-red upon binding to boronate, which shift can be followed by change in absorbance in the 330-340 nm region. […] After 5 minutes of centrifugation at 4000 rpm, the plate is placed in a multi-well spectrometer (SpectraMax, Molecular Devices) for absorption detection. […] Upon complete dissolution of the compound, 200 μM of Alizarin red (ARS) is added to the solution. The ARS-boronate solution is then aliquoted into a 96 multiwell plate (black, flat and clear bottom) 1:1 with appropriate carbohydrate. […] The plate with ARS-boronate mixed with carbohydrate is incubated 20 minutes at room temperature. After 5 minutes of centrifugation at 4000 rpm the plate is placed in a multiwell spectrometer (SpectraMax, Molecular Devices) for absorption detection.

[2] = target: T1, human Insulin Receptor A (hIR-A) (human, UniProt P06213-2 28-1370); assay: SPA competition vs 125I-insulin, hIR-A, 1.5% HSA, no glucose
T1 construct: Solubilised semi-purified receptor captured on SPA beads by antibody 83-7
Method: (§1) BHK cells over-expressing human Insulin Receptor A (hIR-A) were lysed in 50 mM Hepes pH 8.0, 150 mM NaCl, 1% Triton X-100, 2 mM EDTA and 10% glycerol. The cleared cell lysate was batch absorbed with wheat germ agglutinin (WGA)-agarose (Lectin from Triticum vulgaris-Agarose, L1394, Sigma-Aldrich Steinheim, Germany) for 90 minutes. The receptors were washed with 20 volumes 50 mM Hepes pH 8.0, 150 mM NaCl and 0.1% Triton X-100, where after the receptors were eluted with 50 mM Hepes pH 8.0, 150 mM NaCl, 0.1% Triton X-100, 0.5 M n-Acetyl Glucosamine and 10% glycerol. All buffers contained Complete (Roche Diagnostic GmbH, Mannheim, Germany) as described in Andersen et al. 2017 PLos One 12.
(§2) In order to test the glucose sensitivity, the binding experiments were set up in absence or presence of 20 mM glucose. The plates were rocked gently for 22.5 hours at 22° C., centrifuged for 5 minutes at 1000 rpm and counted in TopCounter (Perkin Elmer). Data points were fitted to a four-parameter logistic model, whereby the relative affinity of the analogue compared to human insulin (within the same plate) was determined.

[3] = target: T1, human Insulin Receptor A (hIR-A); assay: SPA, relative hIR-A affinity at 20 mM vs 0 mM glucose, 1.5% HSA
Method: as §1, §2

[4] = target: T2, human Insulin Receptor A (hIR-A) (human, UniProt P06213-2 28-1370); assay: SPA, displacement of 125I-insulin from solubilised hIR-A, 1.5% HSA; increase in relative affinity from 0 to 20 mM glucose
T2 construct: Solubilized semi-purified receptor captured on SPA beads through antibody 83-7
Method: as §1, §2

[5] = target: T2, human Insulin Receptor A (hIR-A); assay: SPA, displacement of 125I-insulin from solubilised hIR-A, 1.5% HSA, no glucose; affinity relative to human insulin
Method: as §1, §2

[6] = target: T3, human Insulin Receptor A (hIR-A) (human, UniProt P06213-2 28-1370); assay: SPA, competition with 125I-insulin on solubilised hIR-A, relative to human insulin
T3 construct: Solubilised, semi-purified receptor
Method: as §1, §2

[7] = target: T3, human Insulin Receptor A (hIR-A); assay: SPA, relative hIR-A affinity at 20 mM over 0 mM glucose
Method: as §1, §2

| Molecule | HIR affinity relative HI (%), 1.5% HSA [2] | HIR glucose factor, 20 mM glucose 1.5% HSA [3] | further results |
| --- | --- | --- | --- |
| O=C(O)c1cc(F)c2c(c1)B(O)OC2 [Example 43, 4-fluoro-1-hydroxy-1,3-dihydrobenzo[c][1,2]oxaborole-6-carboxylic acid] |  |  | affinity to glucose compared with the diboron compounds [1]: weaker affinity to glucose |
| O=C(O)c1cc2c(c(C(F)(F)F)c1)COB2O [Example 42, 1-Hydroxy-4-(trifluoromethyl)-1,3-dihydrobenzo[c][1,2]oxaborole-6-carboxylic acid] |  |  | affinity to glucose compared with the diboron compounds [1]: weaker affinity to glucose |
| Compound of Example 152 (ligand, not fully specified; diboron group from building block of example 15; sites only in drawing) chain 1: GIVEQCCTSICSLEQLENYCNK chain 2: FVNQHLCGSHLVEALYLVCGERGFHYPGK | 4.9% | 2.9 fold |  |
| Compound of Example 154 (ligand, not fully specified; diboron group from building block of example 19; sites only in drawing) chain 1: GIVEQCCTSICSLEQLENYCNK chain 2: FVNQHLCGSHLVEALYLVCGERGFHYPGK | 6.1% | 3.7 fold |  |
| Compound of Example 349 (ligand, diboron group of building block of Example 38 on amino group(s); site(s) shown only in the drawing) chain 1: GIVEQCCTSICSLEQLENYCNK chain 2: FVNQHLCGSHLVEALYLVCGERGFHYPK |  |  | HIR glucose factor, 20 mM glucose 1.5% HSA [4]: 4.7 fold; HIR affinity relative HI (%), 1.5% HSA [5]: 1% |
| compound of Example 272: A14E A22K B25H desB27 desB30 human insulin conjugated with building block of example 29 (ligand, not fully specified; diboron group(s) of example 29, sites only in drawing, number and sites of diboron groups only in drawing) chain 1: GIVEQCCTSICSLEQLENYCNK chain 2: FVNQHLCGSHLVEALYLVCGERGFHYPK |  |  | HIR affinity relative HI (%), 1.5% HSA [6]: 0.2%; HIR glucose factor, 20 mM glucose 1.5% HSA [7]: 12.1 fold |
| Compound of Example 146 (ligand, not fully specified; diboron group from building block of example 16; sites only in drawing) chain 1: GIVEQCCTSICSLEQLENYCNK chain 2: FVNQHLCGSHLVEALYLVCGERGFHYPK | 3.5% | 4.5 fold |  |
| Compound of Example 139 (ligand, diboron group from building block of example 9; sites only in drawing) chain 1: GIVEQCCTSICSLEQLENYCNK chain 2: FVNQHLCGSHLVEALYLVCGERGFHYPK | 4% | 3.2 fold |  |
| Compound of Example 350 (ligand, diboron group of building block of Example 37 on amino group(s); site(s) shown only in the drawing) chain 1: GIVEQCCTSICSLEQLENYCNK chain 2: FVNQHLCGSHLVEALYLVCGERGFHYPK |  |  | HIR glucose factor, 20 mM glucose 1.5% HSA [4]: 18.4 fold; HIR affinity relative HI (%), 1.5% HSA [5]: 0.1% |
| compound of Example 271: A14E A22K B25H desB27 desB30 human insulin conjugated with building block of example 22 (ligand, not fully specified; diboron group(s) of example 22, sites only in drawing, number and sites of diboron groups only in drawing) chain 1: GIVEQCCTSICSLEQLENYCNK chain 2: FVNQHLCGSHLVEALYLVCGERGFHYPK |  |  | HIR glucose factor, 20 mM glucose 1.5% HSA [7]: 7.1 fold |
| Compound of Example 149 (ligand, not fully specified; diboron group from building block of example 15; sites only in drawing) chain 1: GIVEQCCTSICSLEQLENYCNK chain 2: FVNQHLCGSHLVEALYLVCGERGFHYPK | 6.7% | 2.8 fold |  |
| Compound of Example 352 (ligand, diboron group of building block of Example 40 on amino group(s); site(s) shown only in the drawing) chain 1: GIVEQCCTSICSLEQLENYCNK chain 2: FVNQHLCGSHLVEALYLVCGERGFHYPK |  |  | HIR glucose factor, 20 mM glucose 1.5% HSA [4]: 5.2 fold |
| Compound of Example 141 (ligand, diboron group from building block of example 2; sites only in drawing) chain 1: GIVEQCCTSICSLEQLENYCNK chain 2: FVNQHLCGSHLVEALYLVCGERGFHYPK | 8.6% | 2.3 fold |  |
| Compound of Example 150 (ligand, not fully specified; diboron group from building block of example 18; sites only in drawing) chain 1: GIVEQCCTSICSLEQLENYCNK chain 2: FVNQHLCGSHLVEALYLVCGERGFHYPK | 13.3% | 1.3 fold |  |
| Compound of Example 348 (ligand, diboron group of building block of Example 39 on amino group(s); site(s) shown only in the drawing) chain 1: GIVEQCCTSICSLEQLENYCNK chain 2: FVNQHLCGSHLVEALYLVCGERGFHYPK |  |  | HIR glucose factor, 20 mM glucose 1.5% HSA [4]: 7.3 fold; HIR affinity relative HI (%), 1.5% HSA [5]: 0.2% |

The next lines start with results.

| HIR affinity relative HI (%), 1.5% HSA [2] | HIR glucose factor, 20 mM glucose 1.5% HSA [3] | Molecule | further results |
| --- | --- | --- | --- |
| 2% | 9.9 fold | Compound of Example 158 (ligand, not fully specified; diboron group from building block of example 16; sites only in drawing) chain 1: GIVEQCCTSICSLEQLENYCNK chain 2: FVNQHLCGSHLVEALYLVCGERGFHYPGK |  |
| 5.3% | 3 fold | Compound of Example 155 (ligand, not fully specified; diboron group from building block of example 19; sites only in drawing) chain 1: GIVEQCCTSICSLEQLENYCNK chain 2: FVNQHLCGSHLVEALYLVCGERGFHYPK |  |
| 2.2% | 5.9 fold | Compound of Example 166 (ligand, not fully specified; diboron group from building block of example 20; sites only in drawing) chain 1: GIVEQCCTSICSLEQLENYCNK chain 2: FVNQHLCGSHLVEALYLVCGERGFHYPK |  |
